T1: MPP2, Q14168
T1 sequence (Q14168 180-250, limits assumed, looked up): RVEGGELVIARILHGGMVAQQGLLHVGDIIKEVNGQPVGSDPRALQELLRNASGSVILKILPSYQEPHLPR

T2: DVL3, Q92997
T2 sequence (Q92997 244-331, limits assumed, looked up): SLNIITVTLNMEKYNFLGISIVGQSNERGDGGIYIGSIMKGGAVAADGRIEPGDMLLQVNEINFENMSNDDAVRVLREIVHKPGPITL

T3: GRIP1_5, Q9Y3R0
T3 sequence (Q9Y3R0 568-668, limits assumed, looked up): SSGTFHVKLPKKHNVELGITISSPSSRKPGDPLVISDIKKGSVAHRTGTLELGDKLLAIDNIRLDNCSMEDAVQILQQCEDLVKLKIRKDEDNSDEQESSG

T4: LNX2_2, Q8N448
T4 sequence (Q8N448 334-432, limits assumed, looked up): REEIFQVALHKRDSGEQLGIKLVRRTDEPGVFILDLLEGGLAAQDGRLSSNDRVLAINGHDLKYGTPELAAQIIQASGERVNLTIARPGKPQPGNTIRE

T5: GRIP1_4, Q9Y3R0
T5 sequence (Q9Y3R0 467-571, limits assumed, looked up): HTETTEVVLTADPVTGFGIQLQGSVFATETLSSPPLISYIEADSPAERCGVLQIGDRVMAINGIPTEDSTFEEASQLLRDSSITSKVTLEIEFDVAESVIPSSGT

T6: ARHGEF11, O15085
T6 sequence (O15085 42-136, limits assumed, looked up): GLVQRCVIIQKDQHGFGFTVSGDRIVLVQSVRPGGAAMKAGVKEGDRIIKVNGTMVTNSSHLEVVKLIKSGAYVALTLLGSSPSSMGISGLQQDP

T7: TIAM2, Q8IVF5
T7 sequence (Q8IVF5 885-986, limits assumed, looked up): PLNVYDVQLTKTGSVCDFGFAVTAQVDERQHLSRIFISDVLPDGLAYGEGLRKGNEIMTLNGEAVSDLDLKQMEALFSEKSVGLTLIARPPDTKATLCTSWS

T8: LNX2_3, Q8N448
T8 sequence (Q8N448 463-564, limits assumed, looked up): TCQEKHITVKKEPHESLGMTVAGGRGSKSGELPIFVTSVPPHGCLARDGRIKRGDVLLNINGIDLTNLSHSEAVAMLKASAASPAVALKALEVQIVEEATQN

T9: LIN7B, Q9HAP6
T9 sequence (Q9HAP6 88-185, limits assumed, looked up): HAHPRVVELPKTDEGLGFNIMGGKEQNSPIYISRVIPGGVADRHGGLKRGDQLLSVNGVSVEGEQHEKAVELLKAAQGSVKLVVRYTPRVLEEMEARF

T10: DLG3_3, Q92796
T10 sequence (Q92796 374-475, limits assumed, looked up): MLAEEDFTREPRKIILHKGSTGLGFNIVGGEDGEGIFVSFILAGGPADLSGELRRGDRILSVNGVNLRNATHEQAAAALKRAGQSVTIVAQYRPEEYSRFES

T11: RADIL, Q96JH8
T11 sequence (Q96JH8 971-1071, limits assumed, looked up): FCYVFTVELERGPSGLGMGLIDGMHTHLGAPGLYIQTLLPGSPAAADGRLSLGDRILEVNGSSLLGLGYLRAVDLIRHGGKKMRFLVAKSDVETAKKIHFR

T12: NHERF3_1, Q5T2W1
T12 sequence (Q5T2W1 4-100, limits assumed, looked up): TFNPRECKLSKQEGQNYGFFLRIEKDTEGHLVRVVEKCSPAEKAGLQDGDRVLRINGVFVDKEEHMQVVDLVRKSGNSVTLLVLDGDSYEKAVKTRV


What follows are binders tested against NOS1, P29475 (assay: holdup assay). Conditions: plain residues with an end cap or a label only (N-terminal biotin on a linker: ado-ado).
Set-up: key: below the threshold = too weak to quantify, mostly under pKd 3.1 to 4

Chain of NOS1, P29475 (P29475 9-101): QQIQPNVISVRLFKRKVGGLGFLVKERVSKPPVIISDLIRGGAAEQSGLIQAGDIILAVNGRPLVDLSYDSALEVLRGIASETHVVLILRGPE

Row | Binder | pKd
1 | KAEEKPPSKV [SCN4B, Q8IWT1] | below the threshold
2 | QKNKDREYYV [NRXN3, Q9HDB5] | 4.11

Each binder was assayed against PARD3_3, Q8TEW0 (assay: holdup assay). Conditions: plain residues with an end cap or a label only (N-terminal biotin on a linker: ado-ado).
Set-up: key: below the threshold = too weak to quantify, mostly under pKd 3.1 to 4

Chain of PARD3_3, Q8TEW0 (Q8TEW0 582-685): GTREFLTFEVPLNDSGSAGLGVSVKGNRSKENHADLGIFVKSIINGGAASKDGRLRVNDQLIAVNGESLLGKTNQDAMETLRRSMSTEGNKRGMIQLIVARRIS

Row | Binder | pKd
3 | KAEEKPPSKV [SCN4B, Q8IWT1] | below the threshold
4 | QKNKDREYYV [NRXN3, Q9HDB5] | 4.59

Each binder was assayed against T1, MPP2, Q14168 (assay: holdup assay). Conditions: plain residues with an end cap or a label only (N-terminal biotin on a linker: ado-ado).
Set-up: key: below the threshold = too weak to quantify, mostly under pKd 3.1 to 4

Row | Binder | pKd
5 | KAEEKPPSKV [SCN4B, Q8IWT1] | below the threshold
6 | QKNKDREYYV [NRXN3, Q9HDB5] | 4.39

Each binder was assayed against T2, DVL3, Q92997 (assay: holdup assay). Conditions: plain residues with an end cap or a label only (N-terminal biotin on a linker: ado-ado).
Set-up: key: below the threshold = too weak to quantify, mostly under pKd 3.1 to 4

Row | Binder | pKd
7 | KAEEKPPSKV [SCN4B, Q8IWT1] | below the threshold
8 | QKNKDREYYV [NRXN3, Q9HDB5] | 4.02

Each binder was assayed against T3, GRIP1_5, Q9Y3R0 (assay: holdup assay). Conditions: plain residues with an end cap or a label only (N-terminal biotin on a linker: ado-ado).
Set-up: key: below the threshold = too weak to quantify, mostly under pKd 3.1 to 4

Row | Binder | pKd
9 | KAEEKPPSKV [SCN4B, Q8IWT1] | below the threshold
10 | QKNKDREYYV [NRXN3, Q9HDB5] | below the threshold

The binders below were run against Inadl_2, Q8NI35 (assay: holdup assay). Conditions: plain residues with an end cap or a label only (N-terminal biotin on a linker: ado-ado).
Set-up: key: below the threshold = too weak to quantify, mostly under pKd 3.1 to 4

Chain of Inadl_2, Q8NI35 (Q8NI35 238-335): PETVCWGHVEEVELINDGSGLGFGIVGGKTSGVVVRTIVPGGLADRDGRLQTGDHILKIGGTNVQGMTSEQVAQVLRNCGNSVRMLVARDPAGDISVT

Row | Binder | pKd
11 | KAEEKPPSKV [SCN4B, Q8IWT1] | below the threshold
12 | QKNKDREYYV [NRXN3, Q9HDB5] | 4.97

These binders were tested against SNX27, Q96L92 (assay: holdup assay). Conditions: plain residues with an end cap or a label only (N-terminal biotin on a linker: ado-ado).
Set-up: key: below the threshold = too weak to quantify, mostly under pKd 3.1 to 4

Row | Binder | pKd
13 | KAEEKPPSKV [SCN4B, Q8IWT1] | below the threshold
14 | QKNKDREYYV [NRXN3, Q9HDB5] | 3.64

The binders below were run against IL16_3, Q14005 (assay: holdup assay). Conditions: plain residues with an end cap or a label only (N-terminal biotin on a linker: ado-ado).
Set-up: key: below the threshold = too weak to quantify, mostly under pKd 3.1 to 4

Chain of IL16_3, Q14005 (Q14005 1107-1207): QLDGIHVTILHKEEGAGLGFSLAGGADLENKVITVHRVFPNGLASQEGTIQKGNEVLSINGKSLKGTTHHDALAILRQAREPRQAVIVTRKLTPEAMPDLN

Row | Binder | pKd
15 | KAEEKPPSKV [SCN4B, Q8IWT1] | below the threshold
16 | QKNKDREYYV [NRXN3, Q9HDB5] | below the threshold

What follows are binders tested against FRMPD4, Q14CM0 (assay: holdup assay). Conditions: plain residues with an end cap or a label only (N-terminal biotin on a linker: ado-ado).
Set-up: key: below the threshold = too weak to quantify, mostly under pKd 3.1 to 4

Chain of FRMPD4, Q14CM0 (Q14CM0 67-160): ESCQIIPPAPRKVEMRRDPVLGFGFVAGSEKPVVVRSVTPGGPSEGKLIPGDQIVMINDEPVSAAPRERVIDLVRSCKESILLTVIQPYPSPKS

Row | Binder | pKd
17 | KAEEKPPSKV [SCN4B, Q8IWT1] | below the threshold
18 | QKNKDREYYV [NRXN3, Q9HDB5] | 4.4

Each binder was assayed against DLG1_2, Q12959 (assay: holdup assay). Conditions: plain residues with an end cap or a label only (N-terminal biotin on a linker: ado-ado).
Set-up: key: below the threshold = too weak to quantify, mostly under pKd 3.1 to 4

Chain of DLG1_2, Q12959 (Q12959 314-412): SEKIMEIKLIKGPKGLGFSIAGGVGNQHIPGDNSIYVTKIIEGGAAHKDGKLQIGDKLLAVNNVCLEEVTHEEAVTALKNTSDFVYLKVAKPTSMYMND

Row | Binder | pKd
19 | KAEEKPPSKV [SCN4B, Q8IWT1] | 3.52
20 | QKNKDREYYV [NRXN3, Q9HDB5] | below the threshold

These binders were tested against T4, LNX2_2, Q8N448 (assay: holdup assay). Conditions: plain residues with an end cap or a label only (N-terminal biotin on a linker: ado-ado).
Set-up: key: below the threshold = too weak to quantify, mostly under pKd 3.1 to 4

Row | Binder | pKd
21 | KAEEKPPSKV [SCN4B, Q8IWT1] | below the threshold
22 | QKNKDREYYV [NRXN3, Q9HDB5] | 4.81

Each binder was assayed against IL16_4, Q14005 (assay: holdup assay). Conditions: plain residues with an end cap or a label only (N-terminal biotin on a linker: ado-ado).
Set-up: key: below the threshold = too weak to quantify, mostly under pKd 3.1 to 4

Chain of IL16_4, Q14005 (Q14005 1229-1329): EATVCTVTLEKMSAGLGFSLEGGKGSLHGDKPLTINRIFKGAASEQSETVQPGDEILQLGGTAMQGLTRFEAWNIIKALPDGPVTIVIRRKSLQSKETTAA

Row | Binder | pKd
23 | KAEEKPPSKV [SCN4B, Q8IWT1] | 3.65
24 | QKNKDREYYV [NRXN3, Q9HDB5] | below the threshold

The binders below were run against MAGI2_2, Q86UL8 (assay: holdup assay). Conditions: plain residues with an end cap or a label only (N-terminal biotin on a linker: ado-ado).
Set-up: key: below the threshold = too weak to quantify, mostly under pKd 3.1 to 4

Chain of MAGI2_2, Q86UL8 (Q86UL8 410-522): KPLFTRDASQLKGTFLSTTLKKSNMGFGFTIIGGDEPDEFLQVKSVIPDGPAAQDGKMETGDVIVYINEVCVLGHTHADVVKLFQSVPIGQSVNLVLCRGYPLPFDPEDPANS

Row | Binder | pKd
25 | KAEEKPPSKV [SCN4B, Q8IWT1] | below the threshold
26 | QKNKDREYYV [NRXN3, Q9HDB5] | 4.32

What follows are binders tested against T5, GRIP1_4, Q9Y3R0 (assay: holdup assay). Conditions: plain residues with an end cap or a label only (N-terminal biotin on a linker: ado-ado).
Set-up: key: below the threshold = too weak to quantify, mostly under pKd 3.1 to 4

Row | Binder | pKd
27 | KAEEKPPSKV [SCN4B, Q8IWT1] | below the threshold
28 | QKNKDREYYV [NRXN3, Q9HDB5] | below the threshold

These binders were tested against T6, ARHGEF11, O15085 (assay: holdup assay). Conditions: plain residues with an end cap or a label only (N-terminal biotin on a linker: ado-ado).
Set-up: key: below the threshold = too weak to quantify, mostly under pKd 3.1 to 4

Row | Binder | pKd
29 | KAEEKPPSKV [SCN4B, Q8IWT1] | below the threshold
30 | QKNKDREYYV [NRXN3, Q9HDB5] | 4.2

These binders were tested against MAST2, Q6P0Q8 (assay: holdup assay). Conditions: plain residues with an end cap or a label only (N-terminal biotin on a linker: ado-ado).
Set-up: key: below the threshold = too weak to quantify, mostly under pKd 3.1 to 4

Chain of MAST2, Q6P0Q8 (Q6P0Q8 1099-1202): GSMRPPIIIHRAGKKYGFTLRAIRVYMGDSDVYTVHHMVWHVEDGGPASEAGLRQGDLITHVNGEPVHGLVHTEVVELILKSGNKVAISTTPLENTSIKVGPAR

Row | Binder | pKd
31 | KAEEKPPSKV [SCN4B, Q8IWT1] | below the threshold
32 | QKNKDREYYV [NRXN3, Q9HDB5] | 3.77

What follows are binders tested against GRIP2_5, Q9C0E4 (assay: holdup assay). Conditions: plain residues with an end cap or a label only (N-terminal biotin on a linker: ado-ado).
Set-up: key: below the threshold = too weak to quantify, mostly under pKd 3.1 to 4

Chain of GRIP2_5, Q9C0E4 (Q9C0E4 544-642): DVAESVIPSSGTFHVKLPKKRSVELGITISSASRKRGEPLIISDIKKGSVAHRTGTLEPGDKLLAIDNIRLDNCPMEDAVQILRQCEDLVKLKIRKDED

Row | Binder | pKd
33 | KAEEKPPSKV [SCN4B, Q8IWT1] | below the threshold
34 | QKNKDREYYV [NRXN3, Q9HDB5] | below the threshold

What follows are binders tested against LAP2, Q96RT1 (assay: holdup assay). Conditions: plain residues with an end cap or a label only (N-terminal biotin on a linker: ado-ado).
Set-up: key: below the threshold = too weak to quantify, mostly under pKd 3.1 to 4

Chain of LAP2, Q96RT1 (Q96RT1 other isoform, or with tags, fused parts or gaps): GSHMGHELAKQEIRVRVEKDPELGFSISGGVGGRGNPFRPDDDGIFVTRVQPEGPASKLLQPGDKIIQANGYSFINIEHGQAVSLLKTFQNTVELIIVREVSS

Row | Binder | pKd
35 | KAEEKPPSKV [SCN4B, Q8IWT1] | 3.89
36 | QKNKDREYYV [NRXN3, Q9HDB5] | below the threshold

These binders were tested against T7, TIAM2, Q8IVF5 (assay: holdup assay). Conditions: plain residues with an end cap or a label only (N-terminal biotin on a linker: ado-ado).
Set-up: key: below the threshold = too weak to quantify, mostly under pKd 3.1 to 4

Row | Binder | pKd
37 | KAEEKPPSKV [SCN4B, Q8IWT1] | below the threshold
38 | QKNKDREYYV [NRXN3, Q9HDB5] | 4.41

Each binder was assayed against T8, LNX2_3, Q8N448 (assay: holdup assay). Conditions: plain residues with an end cap or a label only (N-terminal biotin on a linker: ado-ado).
Set-up: key: below the threshold = too weak to quantify, mostly under pKd 3.1 to 4

Row | Binder | pKd
39 | KAEEKPPSKV [SCN4B, Q8IWT1] | below the threshold
40 | QKNKDREYYV [NRXN3, Q9HDB5] | below the threshold

What follows are binders tested against T9, LIN7B, Q9HAP6 (assay: holdup assay). Conditions: plain residues with an end cap or a label only (N-terminal biotin on a linker: ado-ado).
Set-up: key: below the threshold = too weak to quantify, mostly under pKd 3.1 to 4

Row | Binder | pKd
41 | KAEEKPPSKV [SCN4B, Q8IWT1] | below the threshold
42 | QKNKDREYYV [NRXN3, Q9HDB5] | below the threshold

The binders below were run against T10, DLG3_3, Q92796 (assay: holdup assay). Conditions: plain residues with an end cap or a label only (N-terminal biotin on a linker: ado-ado).
Set-up: key: below the threshold = too weak to quantify, mostly under pKd 3.1 to 4

Row | Binder | pKd
43 | KAEEKPPSKV [SCN4B, Q8IWT1] | below the threshold
44 | QKNKDREYYV [NRXN3, Q9HDB5] | below the threshold

What follows are binders tested against T11, RADIL, Q96JH8 (assay: holdup assay). Conditions: plain residues with an end cap or a label only (N-terminal biotin on a linker: ado-ado).
Set-up: key: below the threshold = too weak to quantify, mostly under pKd 3.1 to 4

Row | Binder | pKd
45 | KAEEKPPSKV [SCN4B, Q8IWT1] | below the threshold
46 | QKNKDREYYV [NRXN3, Q9HDB5] | 4.7

Each binder was assayed against TJP2_1, Q9UDY2 (assay: holdup assay). Conditions: plain residues with an end cap or a label only (N-terminal biotin on a linker: ado-ado).
Set-up: key: below the threshold = too weak to quantify, mostly under pKd 3.1 to 4

Chain of TJP2_1, Q9UDY2 (Q9UDY2 24-128): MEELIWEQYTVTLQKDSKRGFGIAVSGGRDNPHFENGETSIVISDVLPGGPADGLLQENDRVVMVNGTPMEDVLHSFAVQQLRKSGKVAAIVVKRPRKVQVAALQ

Row | Binder | pKd
47 | KAEEKPPSKV [SCN4B, Q8IWT1] | below the threshold
48 | QKNKDREYYV [NRXN3, Q9HDB5] | 3.52

Each binder was assayed against T12, NHERF3_1, Q5T2W1 (assay: holdup assay). Conditions: plain residues with an end cap or a label only (N-terminal biotin on a linker: ado-ado).
Set-up: key: below the threshold = too weak to quantify, mostly under pKd 3.1 to 4

Row | Binder | pKd
49 | KAEEKPPSKV [SCN4B, Q8IWT1] | below the threshold
50 | QKNKDREYYV [NRXN3, Q9HDB5] | 4.61

What follows are binders tested against GIPC2, Q8TF65 (assay: holdup assay). Conditions: plain residues with an end cap or a label only (N-terminal biotin on a linker: ado-ado).
Set-up: key: below the threshold = too weak to quantify, mostly under pKd 3.1 to 4

Chain of GIPC2, Q8TF65 (Q8TF65 112-203): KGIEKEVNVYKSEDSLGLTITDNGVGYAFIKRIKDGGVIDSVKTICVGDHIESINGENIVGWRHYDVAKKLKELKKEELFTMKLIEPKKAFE

Row | Binder | pKd
51 | KAEEKPPSKV [SCN4B, Q8IWT1] | below the threshold
52 | QKNKDREYYV [NRXN3, Q9HDB5] | 3.52
